The record followed here is patent US20260028391A1 (HUMABS BIOMED, published 2026).

For orientation: Kd means a measure of binding affinity in units of concentration. Low readings indicate higher affinity, high ones lower affinity.

B1: MPK108 (antibody, V domains shown)
VH: EVQLVESGGGLVRPGQSLRLSCTASGFSISGYFMIWVRQAPGKGLEWISYVSASSTYTNYADSVRGRFTTSRDNGQNSLFLQMDSLTAEDTGVYFCAREQTPSPGPFDSWGQGVLVTVSS
VL: QSVLTQPPSLSGAPGQRITISCTGTSSNIGAGYDVHWYQYLPGTAPKLVIYRNTNRPSGVSGRFSGSKSGTSASLAITGLQTEDEADYYCQSYDKKLDGWVFGGGTKLTVL
notes: VH and VL only
B2: MPK142-v1 (antibody, V domains shown)
VH: EVQLVESGGGLVEPGGSLRLSCAASGFTISGYGMSWVRQAPGKGLEWVSSISASSSYIYYGDAMKGRITISRDNGWNSMYLQMNSLRTEDTAVYYCATAPIEPPYFDLWGRGTLVTVSS
VL: QSVLTQPPSVSGAPGQRVTISCTGSSSNIGAGYDVHWYQQFPGKAPKVLIYGNNNRPSGVPDRFAASNSGASASLAITGLQAEDEAAYFCQSYDRRLSGPVFGGGTKLTVL
notes: VH and VL only
B3: MPK145 (antibody, V domains shown)
VH: EVQLVESGGGLVEPGGSLRLSCAASGFTISGYGMSWVRQAPGKGLEWVSSISASSSYIYYGDAMKGRITISRDNGWNSMYLQMNSLRTEDTAVYYCATAPIEPPYFDLWGRGTLVTVSS
VL: QSVVTQPPSVSGAPGQRVTISCTGSSSNIGAGYDVHWYQQFPGKAPKVLIYGNNNRPSGVPDRFAASNSGASASLAITGLQAEDEAAYFCQSYDRRLSGPVFGGGTKLTVL
notes: VH and VL only
B4: MPK142-v2 (antibody, V domains shown)
VH: EVQLVESGGGLVEPGGSLRLSCAASGFTISGYGMSWVRQAPGKGLEWVSSISASSSYIYYGDAMKGRITISRDNGWNSMYLQMNSLRTEDTAVYYCATAPIEPPYFDLWGRGTLVTVSS
VL: DIQLTQTPTSLSASVGDRVTFTCRASQNIGFYLNWYQQKPGKAPRLLIYGASNLQSGVPSRFSGSGAGTDFSLTISSLQPEDFATYYCQQSFNTPRTFGQGTKVEIN
notes: VH and VL only
B5: MPK141 (antibody, V domains shown)
VH: EVQLVESGGGLVKPGGSLRLSCAASGFTISGYYMTWIRQAPGKGLEWISYISGSSSYTNYADSVKGRFTISRDNGRNSVYLQMNSLRADDTGVYYCAREETPSPGPFDSWGQGILVTVSS
VL: QSVLTQPPSVSGAPGQRIIISCIGSSSNIGTGYDVHWYQQLPGRAPKLLISRNTNRPSGIPDRFSGSKSGTSASLAITGLQADDEADYYCQSYDRGLDGWVFGGGTKLTVL
notes: VH and VL only
B6: MPK99 (antibody, V domains shown)
VH: EVQLVESGGGLVKPGGSLRLSCAASGFTISGYYMIWIRQSPGKGLEWISDISASSSYTDYADSVKGRFTISRDNGQNTVYLQMNSLRAEDTAVYYCATEQVPSPGPFDLWGQGTLVTVSS
VL: QSVVTQPPSVSGAPGLRVTISCSGTSSNIGRGYDVHWYQQFPGQSPKLLIYRNTNRPSGVPDRFSGFKSGSSASLAIAGLQAEDEADYYCQSYDRSLGGWVFGGGTRLIVL
notes: VH and VL only
B7: MPK132-v1 (antibody, V domains shown)
VH: EVQLVESGGGLVKPGGSLRLSCEASGISLSGYYMIWIRQAPGKGLEWISSISSSSNYIDYADSVKGRFTISRHNGQNTLYLQMNSLRVEDTAVYFCATEQTPSPGPFELWGQGILVTVSS
VL: QSVVTQPPSVSGAPGQRVTIFCTGTSSNIGTGYDVHWYQQFPGTSPKLLIYRNTNRPSGVPDRFSGSKSGSSASLAIAGLQAEDEADYYCQSYDRSVSGWVFGGGTKLTVL
notes: VH and VL only
B8: MPK126 (antibody, V domains shown)
VH: EVQLVESGGGLVKPGGSMRLSCAASGVTLSGYYMIWIRQAPGKGLEWISDISASSTYTDYADSVKGRFTVSRDNSQNTVYLQMNSLRAEDTAVYYCATEQTPSPGPFDLWGQGTLVTVSS
VL: QSVLTQPPSVSGAPGQRVTISCTGSSSNVGAGYDVHWYQQFPGTSPKLLIYRNTNRPSGVPDRFSGFKSGTSASLAITGLEAEDEADYYCQSYDRSLSGWVFGAGTKLTVL
notes: VH and VL only
B9: MPK144 (antibody, V domains shown)
VH: EVQLVESGGGLVRPGGSLRLSCAASGFTFTGYYMMWIRQAPGKGLEWISDISSSSSYTNYADSVKGRFAISRDNAQNTLYLQMNSLRAEDTAVYYCATEQVPSPGPFDLWGQGTLVTVSS
VL: QSVLTQPPSVSGAPGQRVTISCTGSSSNFGAGYDVHWYQQFPGTSPKLLIYRNTNRPSGVPDRFSGSKSGTSASLAITGLQAEDEADYYCQSYDRSLTGWVFGGGTKLTVL
notes: VH and VL only
B10: MPK129 (antibody, V domains shown)
VH: EVQLVESGGGLVKPGGSLRLSCEASGFSLSGYYMIWIRQAPGKGLEWISSISGSGNYIDYADSVKGRFTISRDNGHNTLYLQMNSLRVEDTAVYYCATEQTPSPGPFDHWGQGTLVTVSS
VL: QTVVTQPPSVSGAPGQRVTISCTGTSSNIGTGYDVHWYQQFPGTSPKLLIYRNTNRPSGVPDRFSGSKSGSSASLAIAGLQAEDEADYYCQSYDRSVSGWVFGGGTKLTVL
notes: VH and VL only
B11: MPK151 (antibody, V domains shown)
VH: EVQLVESGGGLVKPGGSLRLSCAASGLTISGYYMIWIRQAPGKGLEWISDISASSTYTDYAESVKGRFSISRDNGQNTVYLQMNSLRAEDTAVYYCATEQTPSPGPFDLWGQGTLVTVSS
VL: QSVLTQPPSVSGAPGQKITISCTGGSSNFGAGYDVHWYQQFPGTSPKLLIYRNTFRPSGVPDRFSGSKSGTSASLAITGLQAEDEADYYCQSYDRSLSGWVFGGGTKLTVL
notes: VH and VL only
B12: MPK130 (antibody, V domains shown)
VH: EVQLVESGGGLVKPGGSLTLSCEASGFSISGYYMIWVRQAPGKGLEWVSSISASDTYIDYAVSVQGRFTISRHNTKNSLYLQMSSLRVEDTGVYYCTREKVPSPGPFDCWGQGTLVTVSS
VL: QSVLTQPPSVSGAPGQRITISCTGTSSNIGAGYDVHWYQHLPGAAPRLLIYVNTNRPSGVPDRFSGARSGTSASLAITGLQAEDEADYYCQSYDRSLGGWAFGEGTKVTVL
notes: VH and VL only
B13: MPK133 (antibody, V domains shown)
VH: QVQLVQSGGGLVKPGGSLRLSCAASEFSFSGYFMIWIRQAPGKGLEWISYISGSSTYTNYADSVKGRFTISRDNAQNTLYLEMNSLRAEDTGVYYCATEQVPSPGPFDLWGQGTLVTVSS
VL: QSVLTQPPSVSGAPGQRVTISCTGSSSNIGAGYDVHWYQQFPGRSPTLLIYRNTNRPSGVPDRFSGSQSGSSASLAITGLQAEDEADYYCQSYDRTLSGWAFGGGTKVTVL
notes: VH and VL only
B14: MPK146 (antibody, V domains shown)
VH: QVQLVESGGGLVKPGGSLRLSCAASGFTFSGYYMIWIRQAPGKGLEWIASISGSSNYIDYADSVRGRFTISRDNARNILDLQMNSLRAGDTALYYCATEQVPSPGPFDLWGQGTLVTVSS
VL: QSVLTQPPSVSGAPGQRVTISCTGSNSNLGAGYDVHWYQQFPGTSPKLLIYRNTNRPSGVPDRFAGSKSGTSASLAITGLQAEDEADYYCQSYDRSLSGWVFGGGTKLTVL
notes: VH and VL only
B15: MPK127 (antibody, V domains shown)
VH: QVQLVISGGGLVKPGGSLRLSCAASGFRIDSFSLNWVRQAPGKGLEWLASVSASSSYIDYRDSVAGRFTISRDNAQNSLYLQMDTLRAEDTAVYYCARTNGYETGSFDVWGQGTLVTVAS
VL: QSVLTQPPSVSGAPGQRVTISCTGSSSNIGAGYDVHWYQQLPGKAPKLLINANNNRPSGVPDRFSGSNSGTSASLAITGLQAEDEADYYCQSYDKTLSGYVFGLGTTVTVL
notes: VH and VL only
B16: MPK136 (antibody, V domains shown)
VH: EVQLVESGGGLVKPGGSLRLSCEASGFSLSGYYMIWIRQAPGKGLEWISSISGSGNYINYADSVKGRFTVSRDNGHNTLYLQMNSLRVEDTAVYYCATEQTPSPGPFDHWGQGTLVTVSS
VL: QVQLVQPPSVSGAPGQRVSISCTGTSSNIGTGYDVHWYQQFPGTSPKLLIYRNTNRPSGVPDRFSGSKSGSSASLAIAGLQAEDEADYYCQSYDRSVSGWVFGGGTKLTVL
notes: VH and VL only
B17: MPK102 (antibody, V domains shown)
VH: EVQLVESGGGLVKPRGSLRLSCAASGFTFSGYFMIWIRQAPGKGLEWVSYISGSSTYTNYADSVKGRFTISRDNGRNTLYLQMNSLRADDTAVYYCATEQTPSPGPFDLWGQGTLVTVSS
VL: QSVLTQPPSVSGAPGQRVTISCTGTSSNIGAGYDVHWYQQFPGTSPKLLIFRNTNRPSGVSDRFSGSKSGSSASLAIAGLQAEDESDYYCQSYDRGLDGWVFGGGTRLTVL
notes: VH and VL only
B18: MPK152 (antibody, V domains shown)
VH: EVQLVESGGGLVKPGGSLRLSCAASGLTISGYYMIWIRQAPGKGLEWISYISGSSSYTNYADSVKGRFTISRDNGQNTLFLQMDSLRVEDTAVYFCATEETPSPGPFGLWGQGTLVTVSS
VL: QSVVTQPPSVSGAPGQRVTISCTGTSSNIGAGYDVHWYQQFPGTSPKLLIFRNTNRPSGVPDRFSGSTSGSSASLAITGLQTEDEADYYCQSYDRSLDGWVFGGGTELTVL
notes: VH and VL only
B19: MPK149 (antibody, V domains shown)
VH: QVQLVESGGGLVKPGGSLRLSCEASGFTISGYFMIWIRQAPGKGLEWISSISGSSTYTDYAESVKGRFTISRDNGRSTLYLQMNSLRVEDTAVYYCATEQTPSPGPFDLWGQGTLVTVSS
VL: QSVVTQPPSVSGAPGQRVTISCTGTSSNIGAGYDVHWYQQFPGTSPRLLINRNTNRPSGVPDRFSGSQSGSSASLAIAGLQAEDEADYYCQSYDRSVSGWVFGGGTKLTVL
notes: VH and VL only
B20: MPK150-v2 (antibody, V domains shown)
VH: EVQLVESGGGLVKPGGSLRLSCEASGISLSGYYMIWIRQAPGKGLEWISSISGSSTYIDYADSVRGRFTISRHNGQNTIYLQMNSLRVEDTAVYFCATEQTPSPGPFELWGRGILVTVSS
VL: QSVLTQPPSVSGAPGQRVTIFCTGTSSNIGTGYDVHWYQQFPGTSPKLLIFRNSNRPSGVPDRFSGSKSGSSASLAIAGLQAEDEADYYCQSYDRGVNGWVFGGGTKLTVL
notes: VH and VL only
B21: MPK153 (antibody, V domains shown)
VH: EVHLVESGGGLVKPGGSLRLSCAASGFTFTGYFMIWIRQAPGKGLEWISYISSSSNYINYADSVKGRFTISRDNGQNTLYLQMNSLRPDDTAVYYCATEQVPSPGPFDLWGQGTLVTVSS
VL: QSVLTQPPSVSGAPGQRVIISCTGTSSNIGAGYDVHWYQQFPGASPKLLIFRNTDRPSGVPDRFSGSKSGSSASLAIAGLQAEDEADYYCQSYDRSLDGWVFGGGTKVTVL
notes: VH and VL only

The experiment concerns the target RSV fusion glycoprotein (RSV-F) (respiratory syncytial virus). Nature of the experiment: SPR; F protein loaded on streptavidin sensors, mAb in solution. (In general: Surface plasmon resonance follows binding to a sensor surface in real time, without labels.)
Method: Binding affinity of mAbs for RSV-F protein, MPV-F D280 protein, and MPV-F N280 F variant protein was assessed using surface plasmon resonance (SPR).
In turn, B1 came in with a Kd of 0.58 nM.

For B2, the affinity, expressed as Kd, was 100 nM.

B3 displayed a Kd of 0.001 nM.

Turning to B4, the Kd was 16 nM. Against the preceding molecule, the Kd is about 16000-fold higher.

B5 returned a Kd of 0.13 nM.

The molecule B6 showed a Kd of 0.15 nM.

The molecule B7 came in with a Kd of 0.47 nM.

On to B8, for which the Kd was determined as 0.001 nM.

On to B9, for which the Kd was 0.001 nM.

In the case of B10, the Kd was 0.083 nM.

B11 returned a Kd of 0.08 nM. This Kd and that of the molecule before are within 1.5-fold of each other.

Regarding B12, binding was put at a Kd of 0.016 nM.

In the case of B13, the Kd stood at 0.001 nM.

B14 registered a Kd of 0.0095 nM.

As to B15, binding was put at a Kd of 1.7 nM.

The molecule B16 showed a Kd of 0.001 nM.

On to B17, for which the Kd came out at 0.096 nM. Against the preceding molecule, the Kd is about 96-fold higher.

Regarding B18, the Kd was 0.001 nM.

B19 yielded a Kd of 0.001 nM.

With B20, binding was put at a Kd of 0.001 nM.

B21 registered a Kd of 0.46 nM.
